Measurements published in the DeepSol protein solubility set.

Assay: soluble on expression in E. coli; label from the status in PepcDB or PDB records

**Q.** For “MGSDKIHHHHHHMKLVVATNFDDSLLEGLKRYPDVKYIFGSFKRTITGHGRAGFIVPHIKEEQFETHISLAHSYGIKFLYTMNTNTLLGKEYDTEFIGKVMKEVDKLVNFGVDGFIVALPFLIRLIRTEYPDLEVSASSFSRIRNVREVEEYTNLGVNTIIMHEDANRDFKLLKEVAALSRANRFEIELILNNSCLYGCPFRLTHDNISSVTSMVNGVNDVWFEYPVLLCATDVLNDPANLIRSRWIRPEDIKYYEEIGINRFKIAGRNKKTDWILRVVKAYAERKYEGDLLDLVSYPQGRAATKAVQMVNGPSSYFILTSVRIDNTKFPKGWIKFFFTNDCDTRSCKECKYCDIVAERVMTVNGEPFKSSEWSIRQPYPINIIPKFKERK”, which “soluble on expression in E. coli” value is on record?
**A.** The value was “not soluble”.

**Q.** With “MGHHHHHHSHQVLTTSRKPGRKTRRFAKVLARFFNWKYVNRGKLSLEDLAGIAERFWIISEVKGNPAILNLYERGEKTLEVSFTLSNVNKIKMDDSPAVFKGKAPIDPLVFGAIPQTKAGLKLTRKVEFRKKVVVKGDEWLFFYDDEMLFKLRILKISRSS” as the sequence, how does the “soluble on expression in E. coli” value read?
**A.** Its value is “soluble”.

**Q.** For “MSLTTMLEVAKRAGVSKATVSRVLSGNGYVSQETKDRVFQAVEESGYRPNLLARNLSAKSTQTLGLVVTNTLYHGIYFSELLFHAARMAEEKGRQLLLADGKHSAEEERQAIQYLLDLRCDAIMIYPRFLSVDEIDDIIDAHSQPIMVLNRRLRKNSSHSVWCDHKQTSFNAVAELINAGHQEIAFLTGSMDSPTSIERLAGYKDALAQHGIALNEKLIANGKWTPASGAEGVEMLLERGAKFSALVASNDDMAIGAMKALHERGVAVPEQVSVIGFDDIAIAPYTVPALSSVKIPVTEMIQEIIGRLIFMLDGGDFSPPKTFSGKLIRRDSLIAPSREGHHHHHH”, which “soluble on expression in E. coli” value is on record?
**A.** The value was “soluble”.

**Q.** Which “soluble on expression in E. coli” value does the source give for “MTSTPIERAVYIVSDSTGITAETFSHSVLSQFDEVNFKPVRLPFIDTLDKAREVVARINRNALEAGVPPIVFSTLVNPEILALVRQSNGVFLDLFGTFVSHIEQALGLKSSHSIGRSHMAANSEKYRNRIDAINFSLAHDDGQFVNQLDQADVILLGVSRCGKTPTSLYLAMQYAVKAANFPLTPDDFERGALPKTIAPYRGKLFGLSIQPERLAEVRNERRPNSHYARLEQCRYEVAEAERMMRREGISWLSTTTKSIEEIATTVLQEVGLERVAAALEHHHHHH” here?
**A.** Its value is “soluble”.

**Q.** Which “soluble on expression in E. coli” value does the source give for “MGSDKIHHHHHHMIDQLYRKAVLTVAERPQVEQLARQKMWNLAERFVAGESIESAIQAVQALERDGIAGNLDLLGEFIDSPAKCTEFADDVIKLIEAAHAAGIKPYVSIKLSSVGQGKDENGEDLGLTNARRIIAKAKEYGGFICLDMEDHTRVDVTLEQFRTLVGEFGAEHVGTVLQSYLYRSLGDRASLDDLRPNIRMVKGAYLEPATVAYPDKADVDQNYRRLVFQHLKAGNYTNVATHDERIIDDVKRFVLAHGIGKDAFEFQMLYGIRRDLQKQLAAEGYRVRVYLPYGRDWYAYFSRRIAETPRNAAFVVQGMLKG” here?
**A.** Its value is “not soluble”.

**Q.** For “SLRITRIRLYKTDLPYVDGSYGWGAGNAITVARASVVVIDTDAGLQGCGEFTPCGENYMIAHSEGVDAFARLAAPQLLGQDPRQVARMERLMDHLVQGHGYAKAPFDAAFWDILGQATGQPVWMLLGGKLCDGAPMYRVAPQRSEAETRAELARHRAAGYRQFQIKVGADWQSDIDRIRACLPLLEPGEKAMADANQGWRVDNAIRLARATRDLDYILEQPCRSYEECQQVRRVADQPMKLDECVTGLHMAQRIVADRGAEICCLKISNLGGLSKARRTRDFLIDNRMPVVAEDSWGGEIASAAVAHFAASTPEEFLINSTDLMNYNTRSTGLGGPTVHQGRLYASDTPGLGVTPDFNSLGAPVADWALP”, which “soluble on expression in E. coli” value is on record?
**A.** Its value is “not soluble”.

**Q.** With “MQNISTHKYMEKLDLTWSDDSIRFINTATPRARQTFFYVQEAGDFCTSSPYFTERENLNSFLIIYTLRGKGLLKYHGSQYSLHPGTTAYINCMEHHHYECLQKQNWEFLWLHFNGPSALGYYEEFMRSNFHILDSLDPFFMESTMRRILSITQRKDIHSEILSSCLIINILTRILIENDTENLSLGFMPTY” as the sequence, how does the “soluble on expression in E. coli” value read?
**A.** Its value is “not soluble”.

**Q.** For “MASSSLIMGNNMHVKYLAGIVGAALLMAGCSSSNELSAAGQSVRIVDEQPGAECQLIGTATGKQSNWLSGQHGEEGGSMRGAANDLRNQAAAMGGNVIYGISSPSQGMLSSFVPTDSQIIGQVYKCPNLEHHHHHH”, which “soluble on expression in E. coli” value is on record?
**A.** The value was “not soluble”.

**Q.** Which “soluble on expression in E. coli” value does the source give for “MKFPGKRKSKHYFPVNARDPLLQQIQPENESSVSWVVGIDQTLVDIEAKVDEAFIVRYGLSAGHSLVIEDDVAEALYQELVRNNLITHQFAGGTIGNTMHNYSVLADDRSVLLGVMCSNIEIGGYAYRYLCNTSSRTDLNYLQGVDGAIGRCFTLIGDSGERTFAISPGHMNKLRPESIPEAVIAGASALVLTSYLVRCKPGEPMPDATMKAIEYAKKHDVPVVLTLGTKYVIADNPAWWQEFLQEHVSILAMNEEEGEALTGFADPLSAANKALDWVDLVLCTAGPAGLYMAGFTEEEAKRKTQHPLLPGAIPEFNQFEFSRAMRHQDCVNPLRIYSHIAPYMGGPEKIMNTNGAGDGALAALLHDITANNYHRNNVPNSSKHKCKWLTYSSLAQVCKYANRVSYQVLNQHSPRLTRGLPEREDSLEEAYWDR” here?
**A.** The value was “not soluble”.

**Q.** With “MKLEASCGTATSEVPKPEKKTARDAEPSSETRPQEVEAEPRSGSGPEAEAEPLDFVVATERESEEVLAISGGIYGGLDYLPSRYHSWLRDPDRTVVLAKRNGGVIALESVNVIDAGETVLVEGLRVAPWERGKGVAGLLQRFCSQLVKRQHPGVKVARLTRDDQLGPRELKKYRLITKQGILLVRFNASALLAGLGARLAALRTSGTFSPLPTEAVSEAGGDVARLLLSPSVQRDVLPGGTIIQDWQPYRPSESNLRLLAAKGLEWRVDSRARPRVLTLCTRPFPIPHGGDGTWRYLNIDAFGSDGAQVQSQLLWHLQRQAPRLVGLNVMCQLFLEPQLWSQLADFCQVGLGLELVKGYTEQYLLEADI” as the sequence, how does the “soluble on expression in E. coli” value read?
**A.** The value was “soluble”.

**Q.** Which “soluble on expression in E. coli” value does the source give for “MPGLCTGPFAKGRCMSLLAQLDQKIAANGGLIVSCQPVPDSPLDKPEIVAAMALAAEQAGAVAIRIEGVANLQATRAVVSVPIIGIVKRDLEDSPVRITAYIEDVDALAQAGADIIAIDGTDRPRPVPVETLLARIHHHGLLAMTDCSTPEDGLACQKLGAEIIGTTLSGYTTPETPEEPDLALVKTLSDAGCRVIAEGRYNTPAQAADAMRHGAWAVTVGSAITRLEHICQWYNTAMKKAVL” here?
**A.** Its value is “soluble”.

**Q.** With “MGSDKIHHHHHHMSDPGQPTLDQLRVFIAVVETGSFAAAARKLNRATSVISYTIANLEAQLGVTLFDRLSTKKPQLTLEGRTVLAEARSVSNGIDNLRAKVKSMLRGIEPEVHLALDVMLPASRVMDALKAFRKEFPSVSLRLYVEALGAVTQIVLNRTATVGISGPLDVDVLGLERIGVGFVQLVPVAAPDHPLAGGSHAPGAARSHIQLVLTDRSPLTQGHEFAVVGTHTWRLADLGAKHMLLKEGIGWGNMPEPMVRDDLADGRLVQLDLPDCKGGPYRLQAIYRTDTPPGPAGRFLIEHFQAQDAKTPTTAW” as the sequence, how does the “soluble on expression in E. coli” value read?
**A.** Its value is “not soluble”.

**Q.** With “GYDCLGYYQNQEDIMNSPKRQSSVNLGAGDLKYNDFNGDGIIDGSDQHRIGKNSMPRGQYGFSADLNYKGWFMNMLWQGATPADLYMGGMIQGSQSGSGYPPVIYDFQTDVWTPNNTGARYPRLRSTASYNGSNNYGSSDFWLINTGYLRLKTLSIGYDFKHKLLKRVAWMNKCNVSLNGYNLLTFSKANKFDIDPEIGDGNLYTYPVSRVYSISVNVGF” as the sequence, how does the “soluble on expression in E. coli” value read?
**A.** Its value is “not soluble”.

**Q.** Which “soluble on expression in E. coli” value does the source give for “GPGSMSAGGRETAPMNLLRRRNKDEINGDVNAAADRFRNRFEKATLEERKAATTTMVNEYYDLVTDFYEYGWGQNFHFAPRYAGETFFESLARHEYFLAARGGFMEGDHIVDVGCGVGGPARNIVRLTRCNVTGVNNNDYQISRARRHDALAGMSCKIDYVKTDFCNMSLADNTFDGAYAIEATCHAKDKVKCYSEVFRVIKPGTCFVLYEWCMTDKYNPNDEYHRTIKHRIELGDGLPEMETCKQVIEYMKEAGFVVEEAIDVISQFESSPIKSIPWYQPLVGDYSSLQGLRSTPIGRILTNIMCRVLEFVHLAPKGTYKATEVLEEAAESLVVGGQLGIFTPSFYIRARKPSKQA” here?
**A.** Its value is “not soluble”.

**Q.** With “MIDMTMKVGFIGLGIMGKPMSKNLLKAGYSLVVADRNPEAIADVIAAGAETASTAKAIAEQCDVIITMLPNSPHVKEVALGENGIIEGAKPGTVLIDMSSIAPLASREISEALKAKGIDMLDAPVSGGEPKAIDGTLSVMVGGDKAIFDKYYDLMKAMAGSVVHTGEIGAGNVTKLANQVIVALNIAAMSEALTLATKAGVNPDLVYQAIRGGLAGSTVLDAKAPMVMDRNFKPGFRIDLHIKDLANALDTSHGVGAQLPLTAAVMEMMQALRADGLGTADHSALACYYEKLAKVEVTR” as the sequence, how does the “soluble on expression in E. coli” value read?
**A.** The value was “not soluble”.

**Q.** With “MNSAKKEFEISHIFTDVSKLENGNFLLSPEEDHFNVPWDLQLYREDDHLDVYLRCTKLTENDEICAIDTEFELTLKTSNGKQMSRRVKVDFTLENIMIPAWRWSKVVSWETLLKEYLIDDSIIVEAAVMIKAMTGIPRMKLRSFEKSAQEYSDAIIAIGDEKFYVLKKFLAAHSTYFKDLLFGDFDFEQAENSEITLSDINSTDFQCLLEVLYGEPAIDEENIDGILKLAQKYNMPLRFGDVKSS” as the sequence, how does the “soluble on expression in E. coli” value read?
**A.** The value was “not soluble”.

**Q.** For “MSSNLIRFVGNHDIASEGKFLFEILSQLRNFGVGRLVTKNEWTRKWPNNPSYMKILRAEPGMDRWLFEGKVYAEWVFRGKNLGVYEFSKDLNRSDWQLVHKHQEKSYTSSTTPMQDLVLPDSFPLPPLQVHLSQKSARKNGLDEKTVSRRAPLTLSVDPEFQHLKPFIKQEAPSTKSVSIYEEVDKNALLDLYGNELPVKVEAWNAGPAMFQPRFNATTMRVEEQPPK”, which “soluble on expression in E. coli” value is on record?
**A.** Its value is “not soluble”.

**Q.** Which “soluble on expression in E. coli” value does the source give for “MSLGMHLPGGIVENVRKRPGMYCGDVGEYGLHHLVYFLLDVAYEEARRGECRDVVLEVGGDGSIALFCTSRTVTAENLVRVATGAGFLGRPPGDGWGWDSMLVVSLALSSRYQVDIWADGRQWRVMGEHGHPQGEGAAVTPMEPMPVSAERGVRVHFVPDATIFEVLAFDRARLSRRCNELAALAPGLRVSFADLQRGERTLWHLPGGVAQWAHVLTEARPQLHPEPVVFDFTWDGLRVQCALQWCEDEDSTLLSFANAVRTVRHGAHVKGVTQALRGALAKLSGETRGAFPWARVAQGLTAIVAVSGPRRQMAFAGPTKELLAIPGLEEAIRKQLQPLFIELLREHPVTPALLARRTSGSEGHHHHHH” here?
**A.** The value was “soluble”.

**Q.** Which “soluble on expression in E. coli” value does the source give for “MKLRASVLIGATILCLILSACSNYAKKVVKQKNHVYTPVYNELIEKYSEIPLNDKLKDTPFMVQVKLPNYKDYLLDNKQVVLTFKLVHHSKKITLIGDANKILQYKNYFQANGARSDIDFYLQPTLNQKGVVMIASNYNDNPNSKEKPQTFDVLQGSQPMLGANTKNLHGYDVSGANNKQVINEVAREKAQLEKINQYYKTLLQDKEQEYTTRKNNQREILETLSNRAGYQMRQNVISSEIFKNGNLNMQAKEEEVREKLQEERENEYLRNQIRSLLSGK” here?
**A.** The value was “not soluble”.
